Measurements reported in patent US12215130 (dated 2025).
Where two headings read alike, the source gives them in different places.

B1: AWT-P610 (designed binder)
chain: QVQLVESGGGVVQPGGSLRLSCAASGFAFRGFGMSWVRQAPGKGLEWVSSINNGGSDTYYADSVKGRFTISRDNSKNTLYLQMNSLRAEDTAVYYCAIGGPGASPSGQGTQVTVSS
B2: AWT-P367 (antibody, V domains shown)
VH: QVQLVESGGGLVQPGGSLRLSCAASGSTWSINTLAWYRQAPGKQRDLVARISSGGSTHYADSVKGRFTVSRDNAENTLVLQMNSLKPEDTAVYYCYAQSTWYPPSWGQGTQVTVSS

Legend:
Human serum albumin [1] = biological target: Human serum albumin (human)
[2] = biological target: T1, Cynomolgus monkey serum albumin (cynomolgus monkey); test: BLI, pH 7.4
T1 chain: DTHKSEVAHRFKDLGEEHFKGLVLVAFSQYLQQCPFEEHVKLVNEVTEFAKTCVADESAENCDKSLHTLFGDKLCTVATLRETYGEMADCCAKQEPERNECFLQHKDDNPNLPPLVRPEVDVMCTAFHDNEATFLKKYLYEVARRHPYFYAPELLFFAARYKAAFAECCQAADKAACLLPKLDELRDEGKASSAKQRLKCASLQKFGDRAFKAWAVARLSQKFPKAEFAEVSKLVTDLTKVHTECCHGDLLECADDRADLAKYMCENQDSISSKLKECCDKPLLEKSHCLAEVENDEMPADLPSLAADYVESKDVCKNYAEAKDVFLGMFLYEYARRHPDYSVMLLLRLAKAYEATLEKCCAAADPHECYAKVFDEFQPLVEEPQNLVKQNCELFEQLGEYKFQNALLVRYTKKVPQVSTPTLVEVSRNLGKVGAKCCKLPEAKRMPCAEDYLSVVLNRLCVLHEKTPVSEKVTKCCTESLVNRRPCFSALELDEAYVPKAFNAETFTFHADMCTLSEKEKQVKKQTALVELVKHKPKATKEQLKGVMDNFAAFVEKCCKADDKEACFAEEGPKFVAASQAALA

Human serum albumin [3] = biological target: Human serum albumin (human); test: BLI, pH 7.4
[4] = biological target: T1, Cynomolgus monkey serum albumin; test: BLI, pH 5.5
Human serum albumin [5] = biological target: Human serum albumin (human); test: BLI, pH 5.5

Row | Binder | Kd (Human serum albumin [1]) [nM] | Kd [2] [nM] | Kd (Human serum albumin [3]) [nM] | Kd [4] [nM] | Kd (Human serum albumin [5]) [nM]
1 | LAEAKVLANRELDKYGVSDYYKNLINNAKTVEGVKALIDEILAALP [G148-ABD-wt] | ~1.2 |  |  |  | 
2 | B1 |  | 49.6 | 43 | 47.1 | 39.8
3 | B2 |  | 18.9 | 29.6 | 20.5 | 9.6
